Experimental data from US11219221B2 (FarmHannong Co., Ltd., priority 2017, dated 2022).

Columns and labels:
CyPPO17 = experiment: PPO enzyme activity of MBP-fused CyPPO17 wild type and variants; format: biochemical, Thermosynechococcus sp. NK55a; conditions: PPO enzyme activity relative to wild type; MBP-fused protein, 50 μM protoporphyrinogen IX, room temperature, 30 min
Method: (§1) Thus, PPO proteins of wild type and variants were expressed as fused to MBP and were used for experiments.
(§2) The following process for purification of PPO protein was performed in a 4° C. cold room. Amylose resin (NEB) was packed to 1.5×15 cm column (Bio-Rad, Econo Columns 1.5×15 cm, glass chromatography column, max. vol), and the obtained protein extracts were loaded to the column at a flow rate of 0.2 ml/min. The column was washed with 3 column volumes of buffer and the presence of protein in the washing solution was examined. When the protein was no longer detected, the washing procedure was terminated. Then, the MBP-PPO protein was eluted with approximately 2 column volumes of buffer containing 20 mM maltose. The protein concentration of each eluent was determined and the elution was stopped when the protein was no longer detected. Ten microliter of each fraction was investigated for protein quantification and SDS-PAGE analysis. The highly pure fractions of PPO protein variants were used for the enzyme assay.
(§3) Since protoporphyrinogen IX, a substrate of PPO protein, was not commercially available, it was chemically synthesized in the laboratory. Overall process was performed in dark under nitrogen stream. […] of protoporphyrin IX was dissolved in 20 ml of 20% (v/v) EtOH, and stirred under dark condition for 30 minutes. The obtained protoporphyrin IX solution was put into a 15 ml screw tube in an amount of 800 μl, and flushed with nitrogen gas for 5 minutes. To this, 1.5 g of sodium amalgam was added and vigorously shaken for 2 minutes. The lid was opened to exhaust hydrogen gas in the tube. Thereafter, the lid was closed and incubated for 3 minutes. The protoporphyrinogen IX solution was filtered using syringe and cellulose membrane filter. […] To determine the enzyme activity of PPO protein, a reaction mixture was prepared with the following composition (based on 10 ml): 50 mM Tris-Cl (pH 8.0); 50 mM NaCl; 0.04% (v/v) Tween 20; 40 mM glucose (0.072 g); 5 units glucose oxidase (16.6 mg); and 10 units catalase (1 μl).
(§4) Hundred and eighty microliters of a reaction mixture containing the purified PPO protein were placed in 96 well plates and 20 μl of […] were added. […] The reaction proceeded at room temperature for 30 min and the fluorescence of protoporphyrin IX was measured using Microplate reader (Sense, Hidex) (excitation: 405 nm; emission: 633 nm). […] To this, 2.7 N HCl was added, and the absorbance at 408 nm was measured. A standard curve was generated using standard protoporphyrin IX, and PPO activity was measured by calibration of protoporphyrin IX using the standard curve of protoporphyrin IX.
(§5) Activities of variants were presented relatively compared to that of wild type.

CyPPO16 [1] = experiment: Herbicide tolerance test of CyPPO16 wild type and variants in PPO-deficient E. coli BT3(ΔPPO); format: cell-based, Spirulina subsalsa; conditions: BT3(ΔPPO) transformants, two or more amino acid mutations, dark; for Herbicide tolerance, tiafenacil: 37° C., 16 to 20 hours, relative to wild type at highest concentration (50, 200 μM); for Herbicide tolerance, flumioxazin: relative to wild type at highest concentration (25, 50 μM); for Herbicide tolerance, sulfentrazone: relative to wild type at highest concentration (2000, 4000 μM)
Method: The mutated CyPPO gene obtained from the Example 2 was transformed to BT3 (ΔPPO) strain which is deficient of PPO activity and cultured in LB media with PPO-inhibiting herbicide, thereby examining whether growth of transformed BT3 was not inhibited.
BT3 competent cells were transformed with the pET303-CyPPO16 and pET303-CyPPO17 plasmids and those with a mutation(s) constructed in Example 2 respectively, and were cultured in LB agar media containing carbenicillin (Gold Biotechnology, Co., Ltd.).
Single colony of E. coli transformed with each CyPPO gene was cultured in 3 ml of LB broth containing carbenicillin overnight, and then was subcultured until absorbance (0D600) reached 0.5 to 1. Then, it was diluted with LB broth to OD600=0.5. Again, the diluted solution was serially diluted 4 times by a factor of one tenth.
The LB agar media (LB 25 g/l, Bacto agar 15 g/l) containing carbenicillin (100 μg/ml) and 0 to 4,000 μM of various herbicides dissolved in DMSO was prepared. Next, 10 μl of each diluted solution was dropped on the plate and cultured at 37° C. under light (Tables 7 and 9, FIGS. 2 to 6, and 18 to 22) or dark (Tables 8 and 10, FIGS. 7 to 17, and 23 to 33) for 16 to 20 hours. Then, extent of tolerance was evaluated.
The extent of herbicide tolerance of the mutated genes was evaluated by comparing that of mutated genes with that of wild type. The relative tolerance was represented with “+” as a factor of 10 times. Evaluation result was listed in Tables 7 to10 and FIGS. 2 to 33:
In Tables 7 to 10, tolerance level was presented as of tolerance of wild type and of variants equivalent to that of wild type, and was done as ‘+’ per each 10 fold resistance until ‘+++++’ as maximal resistance. (Tolerance level was evaluated by relative growth level of variants to that of wild type in the media containing highest concentration of herbicide; ‘+’=1-9 fold higher tolerance, ‘++’=10-99 fold higher tolerance, ‘+++’=100-999 fold higher tolerance, ‘++++’=1,000-9,999 fold higher tolerance, ‘+++++’=more than 10,000 fold higher tolerance)
The concentrations of herbicides were written above the photographs of tolerance test. A dilution series (0D600=0.5, 0.05, 0.005, 0.0005, 0.00005) was made and spotted on LB agar plates supplemented with herbicides.

CyPPO16 [2] = experiment: PPO enzyme activity of MBP-fused CyPPO16 wild type and variants; format: biochemical, Spirulina subsalsa; conditions: PPO enzyme activity relative to wild type; MBP-fused protein, 50 μM protoporphyrinogen IX, room temperature, 30 min
Method: as §1, §2, §3, §4, §5

B1: V304M: CyPPO17 variant (protein)
chain: MEVDVAIVGGGLSGLSVAWRLQQSAPQYSGVLLEASDRLGGNITTQGAEGFVWELGPNSFAPTPALLQLIAEVGLHSELIRGDRHLPRYIYWRGELYPLEPTRPLALATSNLLSPWGKVRAALGALGFVPPYLGSGDESVNSFFRRHLGQEVAERLVAPFVSGVYAGDPQQLSAAAAFRRIAQLEKLGGGLIAGALRLRRQQPPKPRPPAEVQMRPGELGSFKEGLAALPRAIAQQLKAPVHLQTPVEAITPEPNGGYLLRSGEQTWQARSVVLATPAYQTAALVAPFQPAIARVLAAIPYPTMACVVLAYPAGLGRSVRPGFGVLIPRGQGIRTLGTIWSSCLFPQRTPAGWQVFTSFIGGATDPDLASLREEAIVQQVQQDLTRLLDLPAAKARLLGMKVWRRAIPQYLVGYPQQWQQVTHALSQTPGLFLCSNYAEGVALGDRVEHGNRTAAAVAAYLSGGQS
modifications: Synthetic (Protoporphyrinogen IX oxidase (CyPPO17) of Thermosynechococcus sp. NK55a)
notes: CyPPO17 variant
CyPPO17
  Activity (%): 82%

B2: L326T: CyPPO17 variant (protein)
chain: MEVDVAIVGGGLSGLSVAWRLQQSAPQYSGVLLEASDRLGGNITTQGAEGFVWELGPNSFAPTPALLQLIAEVGLHSELIRGDRHLPRYIYWRGELYPLEPTRPLALATSNLLSPWGKVRAALGALGFVPPYLGSGDESVNSFFRRHLGQEVAERLVAPFVSGVYAGDPQQLSAAAAFRRIAQLEKLGGGLIAGALRLRRQQPPKPRPPAEVQMRPGELGSFKEGLAALPRAIAQQLKAPVHLQTPVEAITPEPNGGYLLRSGEQTWQARSVVLATPAYQTAALVAPFQPAIARVLAAIPYPTVACVVLAYPAGLGRSVRPGFGVTIPRGQGIRTLGTIWSSCLFPQRTPAGWQVFTSFIGGATDPDLASLREEAIVQQVQQDLTRLLDLPAAKARLLGMKVWRRAIPQYLVGYPQQWQQVTHALSQTPGLFLCSNYAEGVALGDRVEHGNRTAAAVAAYLSGGQS
modifications: Synthetic (Protoporphyrinogen IX oxidase (CyPPO17) of Thermosynechococcus sp. NK55a)
notes: CyPPO17 variant
CyPPO17
  Activity (%): 96%

B3: F323V: CyPPO17 variant (protein)
chain: MEVDVAIVGGGLSGLSVAWRLQQSAPQYSGVLLEASDRLGGNITTQGAEGFVWELGPNSFAPTPALLQLIAEVGLHSELIRGDRHLPRYIYWRGELYPLEPTRPLALATSNLLSPWGKVRAALGALGFVPPYLGSGDESVNSFFRRHLGQEVAERLVAPFVSGVYAGDPQQLSAAAAFRRIAQLEKLGGGLIAGALRLRRQQPPKPRPPAEVQMRPGELGSFKEGLAALPRAIAQQLKAPVHLQTPVEAITPEPNGGYLLRSGEQTWQARSVVLATPAYQTAALVAPFQPAIARVLAAIPYPTVACVVLAYPAGLGRSVRPGVGVLIPRGQGIRTLGTIWSSCLFPQRTPAGWQVFTSFIGGATDPDLASLREEAIVQQVQQDLTRLLDLPAAKARLLGMKVWRRAIPQYLVGYPQQWQQVTHALSQTPGLFLCSNYAEGVALGDRVEHGNRTAAAVAAYLSGGQS
modifications: Synthetic (Protoporphyrinogen IX oxidase (CyPPO17) of Thermosynechococcus sp. NK55a)
notes: CyPPO17 variant
CyPPO17
  Activity (%): 16%

B4: I339T: CyPPO17 variant (protein)
chain: MEVDVAIVGGGLSGLSVAWRLQQSAPQYSGVLLEASDRLGGNITTQGAEGFVWELGPNSFAPTPALLQLIAEVGLHSELIRGDRHLPRYIYWRGELYPLEPTRPLALATSNLLSPWGKVRAALGALGFVPPYLGSGDESVNSFFRRHLGQEVAERLVAPFVSGVYAGDPQQLSAAAAFRRIAQLEKLGGGLIAGALRLRRQQPPKPRPPAEVQMRPGELGSFKEGLAALPRAIAQQLKAPVHLQTPVEAITPEPNGGYLLRSGEQTWQARSVVLATPAYQTAALVAPFQPAIARVLAAIPYPTVACVVLAYPAGLGRSVRPGFGVLIPRGQGIRTLGTTWSSCLFPQRTPAGWQVFTSFIGGATDPDLASLREEAIVQQVQQDLTRLLDLPAAKARLLGMKVWRRAIPQYLVGYPQQWQQVTHALSQTPGLFLCSNYAEGVALGDRVEHGNRTAAAVAAYLSGGQS
modifications: Synthetic (Protoporphyrinogen IX oxidase (CyPPO17) of Thermosynechococcus sp. NK55a)
notes: CyPPO17 variant
CyPPO17
  Activity (%): 48%

B5: L327T + F360M: CyPPO16 variant (protein)
chain: MLDSLIVGAGISGLSAAHTLQKQQTQFLVTESQGRVGGNITTNRQGDYLWEEGPNSFAPTEDLLRLAVEVGLKEDLVFADRRLPRFVYWNQQLHPVPMSPPAALKTQLLSEAGKWRAALGALGFVGGLVGREEETVRQFFTRHLGTEVTERLVAPFVSGVYAGDVDQLSAQAAFRRVFEFAQLGGGLAAGGILARRQAPPKAPPDPSLPETKTGQLGSFREGLEMLPRAIASQLGDRLKLQWRLTHLEITPQQTYLAHFNTPDGPQQIATRTLILTTPAPITADLLKPLTPALHGVLKEIYYPPVACVVLAYPRAASARPLEGFGHTIPRNQGIRTLGTIWSSCLFPGRTPEGEHLLTNMIGGATDPGIAQLDPEEIAQAVHQDLCKILIRPEFTPKILAVRLWKQAIPQYTLGHLQRLATLEQELSKFPGLHILANYTDGVALGDCVKRGVAVAQKIRSRE
modifications: Synthetic (Protoporphyrinogen IX oxidase (CyPPO16) of Spirulina subsalsa)
notes: CyPPO16 variant
CyPPO16 [1]
  Herbicide tolerance, tiafenacil: ++++ (‘++++’=1,000-9,999 fold higher tolerance)
  Herbicide tolerance, flumioxazin: ++++ (‘++++’=1,000-9,999 fold higher tolerance)
  Herbicide tolerance, sulfentrazone: ++ (‘++’=10-99 fold higher tolerance)
CyPPO16 [2]
  Activity (%): 21%

B6: A162C + L327T + F360M: CyPPO16 variant (protein)
chain: MLDSLIVGAGISGLSAAHTLQKQQTQFLVTESQGRVGGNITTNRQGDYLWEEGPNSFAPTEDLLRLAVEVGLKEDLVFADRRLPRFVYWNQQLHPVPMSPPAALKTQLLSEAGKWRAALGALGFVGGLVGREEETVRQFFTRHLGTEVTERLVAPFVSGVYCGDVDQLSAQAAFRRVFEFAQLGGGLAAGGILARRQAPPKAPPDPSLPETKTGQLGSFREGLEMLPRAIASQLGDRLKLQWRLTHLEITPQQTYLAHFNTPDGPQQIATRTLILTTPAPITADLLKPLTPALHGVLKEIYYPPVACVVLAYPRAASARPLEGFGHTIPRNQGIRTLGTIWSSCLFPGRTPEGEHLLTNMIGGATDPGIAQLDPEEIAQAVHQDLCKILIRPEFTPKILAVRLWKQAIPQYTLGHLQRLATLEQELSKFPGLHILANYTDGVALGDCVKRGVAVAQKIRSRE
modifications: Synthetic (Protoporphyrinogen IX oxidase (CyPPO16) of Spirulina subsalsa)
notes: CyPPO16 variant
CyPPO16 [1]
  Herbicide tolerance, tiafenacil: +++++ (‘+++++’=more than 10,000 fold higher tolerance)
  Herbicide tolerance, flumioxazin: +++++ (‘+++++’=more than 10,000 fold higher tolerance)
  Herbicide tolerance, sulfentrazone: ++++ (‘++++’=1,000-9,999 fold higher tolerance)
CyPPO16 [2]
  Activity (%): 17%
